Publication PMC7589674

Target: The-05 (variant of the HFt-MP-PASE construct bearing the Lys53Glu, Lys71Glu, Thr135Glu and Lys143Glu mutations) (human)
Assay: SEC + other: dynamic light scattering + other: negative-stain TEM; empty The-05; Superose 6 in PBS pH 7.4; DLS at 25 °C, 1 mg/mL in diluted PBS (1:2); TEM 0.1 mg/mL, 2% uranyl acetate; assembly of the subunits into the cage

- stoichiometry N: 24
Substance: The-05 (variant of the HFt-MP-PASE construct bearing the Lys53Glu, Lys71Glu, Thr135Glu and Lys143Glu mutations) (designed binder)
